Series [1] concerns the target Scs2-Msp (1-128), N-His (Saccharomyces cerevisiae) (UniProt P40075). Nature of the series: MST; Monolith NT.115; RED-tris-NTA labeled N-His Scs2-Msp (100 nM) with a serial dilution of Epo1, Bem3 or EB complex from 2 mM; 20 mM Tris-HCl pH 8.0, 150 mM NaCl, 4 mM MgCl2, 0.05% Tween 20.
Series [2] has as its target Epo1^CC2-CC4 (746-943) with 6xHis tag, isolated protein (Saccharomyces cerevisiae). Nature of the series: SEC-MALS; Superdex 200 10/300 with DAWN HELEOS II; 100 uL of 2-4 mg/mL protein; 20 mM Tris pH 8.0, 150 mM NaCl, 4 mM MgCl2.
Series [3] deals with T1, Bem3^CC1 (1-99) with 6xHis tag, isolated protein (Saccharomyces cerevisiae, UniProt P32873 1-99).
T1 chain: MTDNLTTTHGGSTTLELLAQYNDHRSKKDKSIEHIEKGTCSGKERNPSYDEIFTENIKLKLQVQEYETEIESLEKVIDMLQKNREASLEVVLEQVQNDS
Nature of the series: SPR.

Series [4] has as its target T2, Epo1^CC2-CC4 (746-943) with 6xHis tag, isolated protein.
T2 chain: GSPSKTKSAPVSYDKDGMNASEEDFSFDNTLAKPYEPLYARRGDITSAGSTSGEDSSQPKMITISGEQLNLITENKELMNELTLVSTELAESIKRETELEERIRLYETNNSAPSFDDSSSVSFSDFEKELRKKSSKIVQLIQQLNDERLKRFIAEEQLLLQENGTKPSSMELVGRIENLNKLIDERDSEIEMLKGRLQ
Nature of the series: SPR. Particulars: chain shown with the change;; parent: 72.65.

Series [5] concerns the molecule itself. As to the kind of experiment: SEC-MALS; Superdex 200 10/300 with DAWN HELEOS II; 100 uL of 2-4 mg/mL protein; 20 mM Tris pH 8.0, 150 mM NaCl, 4 mM MgCl2.

Here are results for six molecules from paper PMC8067709, “Crystal Structure of the Epo1-Bem3 Complex for Bud Growth” (International Journal of Molecular Sciences, 2021).

Changes are numbered by the printed parent chain. Names and notes keep the numbering of the source.

Scs2-Msp (1-128), N-His (Saccharomyces cerevisiae), sequence (P40075 1-128): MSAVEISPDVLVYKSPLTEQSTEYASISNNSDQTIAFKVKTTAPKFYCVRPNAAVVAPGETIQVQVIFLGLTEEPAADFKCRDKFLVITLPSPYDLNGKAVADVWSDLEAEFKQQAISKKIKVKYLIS

Regarding “Epo1^CC2-CC4-Bem3^CC1 complex (from UniProt P32873 1-99)”, the equilibrium dissociation constant (Kd) in series [1] is 120 µM.

B1: Epo1^CC2-CC4 (746-943) with 6xHis tag, isolated protein (domain or fragment)
chain: T2 chain
As for B1, in series [2], the stoichiometry N was found to be 2. Besides, the dissociation constant Kd was 72.7 µM in series [3] and 170 µM in series [1].

B2: Epo1CC2-CC4-Q888A (protein)
chain: T2 chain with Q143A
modifications: Entity 1 of 6LP3 is Epo1 (YMR124W) 746-943, so entity position = residue number - 745 (Q888 = 143, K881 = 136, R876 = 131). Q888A is taken from the figure label; the text says Q884A and the legend Q88A. Epo1 CC2-CC4 alone is a homodimer in solution; one chain is given.
B2 displayed a Kd in series [3] of 115 µM.

B3: Epo1-CC-K881A (domain or fragment)
chain: T2 chain with K136A
In series [3], B3 gave a Kd of 375 µM.

B4: Bem3^CC1 (1-99) with 6xHis tag, isolated protein, P32873 R84A (protein)
chain: T1 chain with R84A
For the molecule B4, the Kd in series [4] turned out to be 137 µM.

B5: Bem3^CC1 (1-99) with 6xHis tag, isolated protein (domain or fragment, Saccharomyces cerevisiae, UniProt P32873 1-99, looked up)
chain: T1 chain
notes: Bem3, Saccharomyces cerevisiae, residues 1-99 (CC1 domain); Dimer in solution by MALS; theoretical molecular mass printed as 11.39 kDa; also called N-His-unlabeled Bem3^CC1; wild-type (wt) Bem3^CC1; source: pET-22b construct, purified (Hitrap Q ion-exchange); not shown: 6xHis, N-terminal, kept
On to B5, for which, in series [5], the “stoichiometry N” value was 2.
